Experimental data: publication PMC9612331

Experiments:
[1] = target: Aleutian mink disease virus (AMDV) capsid protein VP2 (Aleutian mink disease virus (AMDV)); experiment: cryo-EM structure
[2] = target: Human parvovirus 4 (PARV4) capsid protein VP2 (human parvovirus 4 (PARV4)); experiment: cryo-EM structure

Question: Which stoichiometry N [1] does the source give for “Aleutian mink disease virus (AMDV) capsid protein VP2 (natural protein)” here?
Answer: 60

Question: “Human parvovirus 4 (PARV4) capsid protein VP2 (natural protein)” was tested. Which stoichiometry N [2] did it give?
Answer: 60
